{
  "source": "paper PMC6736995",
  "about": "“Insights Into Enhanced Complement Activation by Structures of Properdin and Its Complex With the C-Terminal Domain of C3b” (Frontiers in Immunology, 2019)",
  "molecules": {"B1": {"name": "catalytically inactive (S699A) double-gain-of-function (D279G, N285D) factor B mutant (enzyme, human, UniProt P00751 26-764, looked up)", "chain": "TPWSLARPQGSCSLEGVEIKGGSFRLLQEGQALEYVCPSGFYPYPVQTRTCRSTGSWSTLKTQDQKTVRKAECRAIHCPRPHDFENGEYWPRSPYYNVSDEISFHCYDGYTLRGSANRTCQVNGRWSGQTAICDNGAGYCSNPGIPIGTRKVGSQYRLEDSVTYHCSRGLTLRGSQRRTCQEGGSWSGTEPSCQDSFMYDTPQEVAEAFLSSLTETIEGVDAEDGHGPGEQQKRKIVLDPSGSMNIYLVLDGSGSIGASDFTGAKKCLVNLIEKVASYGVKPRYGLVTYATYPKIWVKVSEADSSNADWVTKQLNEINYEDHKLKSGTNTKKALQAVYSMMSWPDDVPPEGWNRTRHVIILMTDGLHNMGGDPITVIDEIRDLLYIGKDRKNPREDYLDVYVFGVGPLVNQVNINALASKKDNEQHVFKVKDMENLEDVFYQMIDESQSLSLCGMVWEHRKGTDYHKQPWQAKISVIRPSKGHESCMGAVVSEYFVLTAAHCFTVDDKEHSIKVSVGGEKRDLEIEVVLFHPNYNINGKKEAGIPEFYDYDVALIKLKNKLKYGQTIRPICLPCTEGTTRALRLPPTTTCQQQKEELLPAQDIKALFVSEEEKKLTRKEVYIKNGDKKGSCERDAQYAPGYDKVKDISEVVTPRFLCTGGVSPYADPNTCRGDAGGPLIVHKRSRFIQVGVISWGVVDVCKNQKRQKQVPAHARDFHINLFQVLPWLKEKLQDEDLGFL", "notes": "complement factor B, human; also called FB^dgf‡"}, "B2": {"name": "C3/C3b-CTC domain (C-terminal C345c domain of C3/C3b) (domain or fragment, human)", "chain": "GSNCFIQKSDDKVTLEERLDKACEPGVDYVYKTRLVKVQLSNDFDEYIMAIEQTIKSGSDEVQVGQQRTFISPIKCREALKLEEKKHYLMWGLSSDFWGEKPNLSYIIGKDTWVEHWPEEDECQDEENQKQCQDLGAFTESMVVFGCPN", "notes": "N-terminal Gly-Ser cloning scar from the BamHI site; complement C3, human, CTC (C345c) domain, res; 1517-1663; stop codon before the NotI site, no alanine extension; also called C3b/C3 CTC domain"}, "B3": {"name": "P^N12/456, monomerized properdin (non-covalent complex of P^N12 with P^456) (complex, human)", "chain 1": "GSDPVLCFTQYEESSGKCKGLLGGGVSVEDCCLNTAFAYQKRSGGLCQPCRSPRWSLWSTWAPCSVTCSEGSQLRYRRCVGWNGQCSGKVAPGTLEWQLQACEDQQCCPEMGGWSGWGPWEPCSVTCSKGTRTRRRACNHPAPKCGGHCPGQAQESEACDTQQVCP", "chain 2": "GSVAGGWGPWGPVSPCPVTCGLGQTMEQRTCNHPVPQHGGPFCAGDATRTHICNTAVPCPVDGEWDSWGEWSPCIRRNMKSISCQEIPGQQSRGRTCRGRKFDGHRCAGQQQDIRHCYSIQHCPLKGSWSEWSTWGLCMPPCGPNPTRARQRLCTPLLPKYPPTVSMVEGQGEKNVTFWGRPLPRCEELQGQKLVVEEKRPCLHVPACKDPEEEELAAA", "modifications": "C-mannosylated Trp-ladder tryptophans; O-fucosylation of Thr92 and Thr151 (observed in the structure) | C-mannosylated Trp-ladder tryptophans; O-fucosylation of Thr272; N-glycosylation of Asn428", "notes": "N-terminal Gly-Ser cloning scar from the BamHI site; properdin, human, P^N12, res; 28-191 (N-terminal STB domain, TSR1, TSR2); stop codon before the NotI site, no alanine extension; 256-469 (TSR4, TSR5, TSR6); C-terminal extension of three alanines from the NotI site; TSR3 (res. 192-255) is absent; source: HEK293-EBNA, co-expressed (1:1 DNA ratio), purified from supernatant (Ni-Sepharose Excel, …)"}},
  "key": {"C3b (Homo sapiens)": {"target": "C3b (Homo sapiens) (UniProt P01024)", "sequence (P01024 23-667)": "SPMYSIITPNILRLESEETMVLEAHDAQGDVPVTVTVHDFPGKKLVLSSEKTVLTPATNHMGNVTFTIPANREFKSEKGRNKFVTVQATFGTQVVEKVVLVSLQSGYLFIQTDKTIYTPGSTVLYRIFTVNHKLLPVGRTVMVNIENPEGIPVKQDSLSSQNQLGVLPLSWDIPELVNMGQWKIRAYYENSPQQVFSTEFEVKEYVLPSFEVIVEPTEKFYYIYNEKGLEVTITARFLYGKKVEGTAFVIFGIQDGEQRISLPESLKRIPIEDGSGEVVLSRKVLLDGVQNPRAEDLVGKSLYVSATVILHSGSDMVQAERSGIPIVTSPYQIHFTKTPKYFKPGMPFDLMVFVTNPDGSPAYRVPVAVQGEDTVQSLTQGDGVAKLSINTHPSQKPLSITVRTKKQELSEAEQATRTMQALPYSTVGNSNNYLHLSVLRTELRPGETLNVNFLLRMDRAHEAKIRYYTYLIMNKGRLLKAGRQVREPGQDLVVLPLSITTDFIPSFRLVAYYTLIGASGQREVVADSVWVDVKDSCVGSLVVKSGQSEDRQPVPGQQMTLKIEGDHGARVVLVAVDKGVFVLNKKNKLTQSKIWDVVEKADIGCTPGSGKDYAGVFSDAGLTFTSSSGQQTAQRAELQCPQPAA", "settings": "cited from earlier work"}, "[1]": {"target": "T1, C3b, biotinylated at the free cysteine of the hydrolysed thioester (human, UniProt P01024 23-667; P01024 749-1663, biotin (EZ-Link Maleimide-PEG2-Biotin) on the free cysteine that is generated after hydrolysis of the reactive thioester)", "T1 construct": "complement C3 beta chain, human; C3b alpha' chain, human; Coupled to a streptavidin chip through the biotin; also called C3b coated chip; source: generated from C3 (purified from human plasma) with FB and FD, biotinylated, purified by SEC", "T1 sequence (P01024 23-667, one chain of several)": "as the sequence (P01024 23-667) above", "assay": "SPR; formation of C3bB and C3bBb on the chip: 100 nM FB^dgf‡ injected for 5 min over biotinylated C3b, then 100 nM FD for 5 min; buffer with 5 mM MgCl2; 25°C", "settings": "both partners purified"}, "[2]": {"target": "T2, P^N1′/456, biotinylated monomerized properdin (complex of P^N1′ with P^456) (human, UniProt P27918 28-134; P27918 256-469, biotinylated with EZ-Link Maleimide-PEG2-Biotin as described for C3b (site not stated))", "T2 construct": "N-terminal Gly-Ser cloning scar from the BamHI site; properdin, human, P^N1′, res; 28-134; includes an additional Cys-Pro (res. 133-134) at the C-terminus of TSR1; C-terminal extension of three alanines from the NotI site; 256-469 (TSR4, TSR5, TSR6); The maleimide-biotin is surmised to sit on a free cysteine at the C-terminus of P^N1′ (Cys132/Cys133); source: HEK293-EBNA, co-expressed, purified …", "assay": "SPR; biotinylated P^N1′/456 on a SensEye P-Strep chip; C3/C3b-CTC injected 2.4 × 10^-2 to 200 μM (200 μM point left out as an outlier); 20 mM HEPES pH 7.4, 0.005% Tween-20, 150 mM NaCl; 25°C; equilibrium end-point fit", "settings": "both partners purified"}, "[3]": {"target": "T1, C3b, biotinylated at the free cysteine …", "assay": "SPR; biotinylated C3b on a SensEye P-Strep chip (IBIS-MX96); P^N12/456 injected 4.9 × 10^-3 to 40 μM in 14 2-fold steps; 20 mM HEPES pH 7.4, 0.005% Tween-20, 150 mM NaCl; 25°C; equilibrium end-point fit", "settings": "both partners purified"}, "[4]": {"target": "T1, C3b, biotinylated at the free cysteine …", "assay": "SPR; biotinylated C3b on a SensEye P-Strep chip; P^N12/456 injected 1.2 × 10^-3 to 10 μM; low ionic strength, 20 mM HEPES pH 7.4, 0.005% Tween-20, 50 mM NaCl; 25°C; equilibrium end-point fit", "settings": "both partners purified"}, "C3 convertase C3bBb^dgf‡": {"target": "T3, C3 convertase C3bBb^dgf‡ (human, UniProt P01024 23-667; P01024 749-1663; P00751 260-764, S699A | D279G | N285D, biotin (EZ-Link Maleimide-PEG2-Biotin) on the free cysteine that is generated after hydrolysis of the reactive thioester)", "T3 construct": "complement C3 beta chain, human; C3b alpha' chain, human; In the convertase stability assay (functional rows) the same complex was formed in solution from C3b that was not biotinylated; source: formed on the SPR chip: FB^dgf‡ (100 nM, 5 min) then FD (100 nM, 5 min) over biotinylated C3b, 5 mM MgCl2; copies: + +", "T3 sequence (P01024 23-667, stated change not applied, one chain of several)": "as the sequence (P01024 23-667) above", "assay": "SPR; C3bB^dgf‡ or C3bBb^dgf‡ generated on a C3b coated chip before each injection; P^N12/456 injected (2.4 × 10^-4 to 2 μM on C3bB, 1.2 × 10^-4 to 1 μM on C3bBb); 20 mM HEPES pH 7.4, 0.005% Tween-20, 150 mM NaCl, 5 mM MgCl2; 25°C; equilibrium end-point fit", "settings": "both partners purified"}, "[5]": {"target": "T4, C3 pro-convertase C3bB^dgf‡ generated on a C3b coated chip (human, UniProt P01024 23-667; P01024 749-1663; P00751 26-764, S699A | D279G | N285D, biotin (EZ-Link Maleimide-PEG2-Biotin) on the free cysteine that is generated after hydrolysis of the reactive thioester)", "T4 construct": "complement C3 beta chain, human; C3b alpha' chain, human; source: formed on the SPR chip: 100 nM FB^dgf‡ injected for 5 min over biotinylated C3b, 5 mM MgCl2; copies: + +", "T4 sequence (P01024 23-667, stated change not applied, one chain of several)": "as the sequence (P01024 23-667) above", "assay": "SPR; C3bB^dgf‡ or C3bBb^dgf‡ generated on a C3b coated chip before each injection; P^N12/456 injected (2.4 × 10^-4 to 2 μM on C3bB, 1.2 × 10^-4 to 1 μM on C3bBb); 20 mM HEPES pH 7.4, 0.005% Tween-20, 150 mM NaCl, 5 mM MgCl2; 25°C; equilibrium end-point fit", "settings": "both partners purified"}},
  "data": [
    {"molecule": "Properdin single vertices (from UniProt P27918)", "values": [
      {"measurement": "Kd", "setting": "C3b (Homo sapiens)", "result": 7.8, "unit": "µM"}
    ]},
    {"molecule": "B1", "values": [
      {"measurement": "binding result", "setting": "[1]", "result": "binds"}
    ]},
    {"molecule": "B2", "values": [
      {"measurement": "Kd", "setting": "[2]", "result": "18.6 ± 1.6", "unit": "µM"}
    ]},
    {"molecule": "B3", "values": [
      {"measurement": "Kd", "setting": "[3]", "result": "6.8 ± 0.2", "unit": "µM"},
      {"measurement": "Kd", "setting": "[4]", "result": "690 ± 40", "unit": "nM"},
      {"measurement": "Kd", "setting": "C3 convertase C3bBb^dgf‡", "result": "34 ± 1", "unit": "nM"},
      {"measurement": "Kd", "setting": "[5]", "result": "98 ± 2", "unit": "nM"}
    ]}
  ]
}
